# Measurements: US20210388082A1 (NEWBIO THERAPEUTICS, published 2021)
# T1: CD79b on the surface of human lymphoma cell lines (human, UniProt P40259 29-229)
# T1 sequence (looked up): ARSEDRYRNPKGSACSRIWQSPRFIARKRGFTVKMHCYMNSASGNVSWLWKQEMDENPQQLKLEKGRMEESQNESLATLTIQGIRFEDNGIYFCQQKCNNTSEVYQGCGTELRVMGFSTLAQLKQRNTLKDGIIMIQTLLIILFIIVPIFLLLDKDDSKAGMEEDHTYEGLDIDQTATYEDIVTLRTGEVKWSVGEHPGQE
# T2: recombinant human CD79b extracellular domain protein (human, UniProt P40259 29-159)
# T2 construct: Bought protein; also called CD79b ECD; human CD79b-ECD
# T2 sequence: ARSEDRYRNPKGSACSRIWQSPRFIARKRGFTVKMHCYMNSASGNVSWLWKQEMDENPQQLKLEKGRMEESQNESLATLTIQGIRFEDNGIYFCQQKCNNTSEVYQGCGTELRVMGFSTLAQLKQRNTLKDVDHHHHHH
# Assays:
# [1] = target: T1, CD79b on the surface of human lymphoma …; test: cell-based or functional assay
# [2] = target: T1, CD79b on the surface of human lymphoma …; test: cell-based or functional assay; remark: listed apart in the source
# [3] = target: T2, recombinant human CD79b extracellular …; test: ELISA, plate coated with human CD79b-ECD
# Experimental: (§1) The experimental procedure was as follows: 96-well plates (Corning, CAT #9018) were coated with 100 μL/well of antigen (human CD79b-ECD, novoprotein, CA29) at 1 μg/mL in PBS (10 mM phosphate, 138 mM NaCl, pH 7.2) at 4° C. overnight, and then blocked with 250 ul/well of blocking solution (PBS+1% BSA (Sangon, CAT #A0332)) for one to three hours at 25° C. Plates were washed 3 times with a washing solution (PBS+0.05% Tween-20 (Sangon, CAT #TB0560)), and then incubated with 100 μL of anti-CD79b antibody in serial dilutions in blocking solution in duplicate wells at 25° C. for 2 h. Plates were washed 3 times with washing solution and then incubated with 100 μL of 1:10,000 the secondary antibody (anti-mouse IgG (Fc)-HRP, Sigma, CAT #A00168 or anti-human IgG F(ab′)2-HRP, Sigma, CAT #A0293) at 25° C. for 1 h. Plates were washed 3 times with washing solution, and then 100 μL of TMB (Sangon, CAT #TB0954) was added to each well and incubated at 25° C. until color developed (approximately 15 min). Reactions were stopped by addition of 100 μl/well stop solution (1N H2SO4). OD450/630 nm was read on plate reader in 10 minutes.
# [4] = target: T1, CD79b on the surface of human lymphoma …; test: cell-based or functional assay; remark: listed apart in the source
# [5] = target: T2, recombinant human CD79b extracellular …; test: SPR (Biacore T200), antibody on CM5 chip, CD79b ECD as analyte, 25 C
# Experimental: The assay was performed on a Biacore T200 (GE) machine, and the antibody to be tested was diluted to 10 ug/ml with HBS-EP (GE, BR100826) buffer according to the instruction of Amine-Coupling Kit (GE, BR-1000-50). The antibody to be tested was immobilized on a CM5 chip (GE, BR-1006-68) at a fixing time of 300 sec and a flow rate of 10 ul/min. Different concentrations (0.25 nm, 0.5 nm, 1 nm, 2 nm, 4 nm, 8 (×2) nm, 16 nm) of the recombinant CD79b extracellular domain protein diluted with HBS buffer gradient was subjected to capture reaction by Kinetics program, with the binding time of the antigen-antibody set to 300 seconds, dissociation time set to 900 seconds, flow rate of the antigenic protein to 30 ul/min. The dissociation curves were fitted to calculate the KD values of the different antibodies. The above experiments were all carried out at 25° C.
# The affinity of the antibody after humanization was tested by the method described in Section 4 of the “Materials and Methods” section.
# [6] = target: T2, recombinant human CD79b extracellular …; test: ELISA, plate coated with human CD79b-ECD; remark: listed apart in the source
# Experimental: as §1
# The in vitro binding activity of the anti-CD79b humanized antibody to the extracellular domain of human CD79b was examined by ELISA as described in Section 1 of the Materials and Methods section.
# [7] = target: T2, recombinant human CD79b extracellular …; test: indirect ELISA, plate coated with CD79b antigen
# Experimental: An ELISA anti-antibody was added to bind with the antibody or ADC antibody bound to the solid phase antigen, and unbound anti-antibody was removed by washing. Substrate solution was added, and then the optical density (OD) value at 450 nm/630 nm was read with a microplate reader T, based on which a curve was plotted, and the EC₅₀ was calculated.
Kd [5],koff [5],kon [5],EC50 [6],Binder,further results
0.0341 nM,5.52e-05 s⁻¹,1.62e+06 M⁻¹ s⁻¹,–,"recombinant human-mouse chimeric antibody 104E1 (antibody, V domains shown, also called chimeric 104E1) VH: QVQLQQSGSELARPGASVKLSCKTSGNTFTSYGINWVKQRTGQGLEWIGEIFPRSGNIYYNEKFKGKATLTADKSSSTAYMELRSLTSEDSAVYFCAKGGTGDFDYWGQGTTLTVSS VL: DVLMTQTPLSLPVSLGDQASISCRSSQNIVHSDGNTYLEWYLQKPGQSPKLLIYKVSFRLSGVPDRFSGSGSGTDFTLKIRRVEAEDLGTYYCFQGSHVPWTFGGGTKLEIK",–
0.0285 nM,4.22e-05 s⁻¹,1.48e+06 M⁻¹ s⁻¹,0.0499 µg/mL,"Humanized antibody AS11252 (antibody, human IgG1, kappa, Humanized IgG1 / kappa) heavy: not shown light: DVVMTQSPLSLPVTLGQPASISCRSSQNIVHSDGNTYLEWYQQRPGQSPRLLIYKVSFRLSGVPDRFSGSGSGTDFTLKISRVEAEDVGVYYCFQGSHVPWTFGGGTKVEIKRTVAAPSVFIFPPSDEQLKSGTASVVCLLNNFYPREAKVQWKVDNALQSGNSQESVTEQDSKDSTYSLSSTLTLSKADYEKHKVYACEVTHQGLSSPVTKSFNRGEC",–
0.0187 nM,2.87e-05 s⁻¹,1.53e+06 M⁻¹ s⁻¹,0.0501 µg/mL,"Humanized antibody AS11254 (antibody, human IgG1, kappa, V domains shown, Humanized IgG1 / kappa) VH: QVQLVQSGAEVKKPGASVKVSCKTSGNTFTSYGINWVKQAPGQGLEWMGEIFPRSGNIYYNEKFKGRVTITADKSTSTAYMELSSLRSEDTAVYYCAKGGTGDFDYWGQGTLVTVSS VL: DVVMTQSPLSLPVTLGQPASISCRSSQNIVHSDGNTYLEWYQQRPGQSPRLLIYKVSFRLSGVPDRFSGSGSGTDFTLKISRVEAEDVGVYYCFQGSHVPWTFGGGTKVEIKR",–

# The next lines start with the binder.
Binder,Kd [5],koff [5],kon [5],EC50 [6],further results
"recombinant chimeric antibody 104E1 conjugated to BMP-vcMMAE (other, antibody conjugated to BMP-vcMMAE (linker-drug 1); positions not given) VH: QVQLQQSGSELARPGASVKLSCKTSGNTFTSYGINWVKQRTGQGLEWIGEIFPRSGNIYYNEKFKGKATLTADKSSSTAYMELRSLTSEDSAVYFCAKGGTGDFDYWGQGTTLTVSS VL: DVLMTQTPLSLPVSLGDQASISCRSSQNIVHSDGNTYLEWYLQKPGQSPKLLIYKVSFRLSGVPDRFSGSGSGTDFTLKIRRVEAEDLGTYYCFQGSHVPWTFGGGTKLEIK",–,–,–,–,"Inhibitory effect on the lymphoma cell proliferation IC50, BJAB [1]: 8.81 ng/mL; Inhibitory effect on the lymphoma cell proliferation IC50, DoHH2 [1]: 4.26 ng/mL; Inhibitory effect on the lymphoma cell proliferation IC50, Granta-519 [1]: 29.6 ng/mL; Inhibitory effect on the lymphoma cell proliferation IC50, Ramos [1]: 4.42 ng/mL; Inhibitory effect on the lymphoma cell proliferation IC50, SU_DHL-4 [1]: 9.46 ng/mL; Inhibitory effect on the lymphoma cell proliferation IC50, U-698-M [1]: 15.9 ng/mL; Inhibitory effect on the lymphoma cell proliferation IC50, WSU-DLCL2 [1]: 16.8 ng/mL; Inhibitory activity on lymphoma cell proliferation IC50, BJAB [2]: 10.4 ng/mL; Inhibitory activity on lymphoma cell proliferation IC50, DoHH2 [2]: 5.75 ng/mL; Inhibitory activity on lymphoma cell proliferation IC50, Granta-519 [2]: 20.8 ng/mL; Inhibitory activity on lymphoma cell proliferation IC50, Ramos [2]: 6.02 ng/mL; Inhibitory activity on lymphoma cell proliferation IC50, SU-DHL-4 [2]: 11.9 ng/mL; Inhibitory activity on lymphoma cell proliferation IC50, U-698-M [2]: 9.52 ng/mL; Inhibitory activity on lymphoma cell proliferation IC50, WSU-DLCL2 [2]: 18.2 ng/mL"
"murine anti-CD79b monoclonal antibody 104E1 (antibody, V domains shown, Mouse hybridoma antibody, tested as supernatant; also called murine antibody 104E1) VH: QVQLQQSGSELARPGASVKLSCKTSGNTFTSYGINWVKQRTGQGLEWIGEIFPRSGNIYYNEKFKGKATLTADKSSSTAYMELRSLTSEDSAVYFCAKGGTGDFDYWGQGTTLTVSS VL: DVLMTQTPLSLPVSLGDQASISCRSSQNIVHSDGNTYLEWYLQKPGQSPKLLIYKVSFRLSGVPDRFSGSGSGTDFTLKIRRVEAEDLGTYYCFQGSHVPWTFGGGTKLEIK",–,–,–,–,EC50 [3]: 0.0149 µg/mL; IC50 against BJAB (secondary ADC assay with HB58-ADC) [4]: 9.3 ng/mL
"Humanized antibody AS11259 (antibody, human IgG1, kappa, Humanized IgG1 / kappa; also called naked antibody AS11259) heavy: not shown light: DVVMTQSPLSLPVTLGQPASISCRSSQNIVHSDGNTYLEWYQQRPGQSPRLLIYKVSFRLSGVPDRFSGSGSGTDFTLKISRVEAEDVGVYYCFQGSHVPWTFGGGTKVEIKRTVAAPSVFIFPPSDEQLKSGTASVVCLLNNFYPREAKVQWKVDNALQSGNSQESVTEQDSKDSTYSLSSTLTLSKADYEKHKVYACEVTHQGLSSPVTKSFNRGEC",0.0216 nM,3.63e-05 s⁻¹,1.68e+06 M⁻¹ s⁻¹,0.0583 µg/mL,EC50 [7]: 0.0178 µg/mL
"Humanized antibody AS11164 (antibody, human IgG1, kappa, V domains shown, Humanized IgG1 / kappa) VH: QVQLVQSGAEVKKPGSSVKVSCKTSGNTFTSYGINWVRQAPGQGLEWMGEIFPRSGNIYYNEKFKGKVTITADKSTSTAYMELSSLRSEDTAVYYCAKGGTGDFDYWGQGTLVTVSS VL: DVLMTQSPLSLPVTLGQPASISCRSSQNIVHSDGNTYLEWYQQRPGQSPKLLIYKVSFRLSGVPDRFSGSGSGTDFTLKISRVEAEDVGVYYCFQGSHVPWTFGGGTKVEIKR",0.0128 nM,2.44e-05 s⁻¹,1.91e+06 M⁻¹ s⁻¹,0.064 µg/mL,–
"Humanized antibody AS11161 (antibody, human IgG1, kappa, V domains shown, Humanized IgG1 / kappa) VH: QVQLVQSGAEVKKPGSSVKVSCKTSGNTFTSYGINWVRQAPGQGLEWMGEIFPRSGNIYYNEKFKGKVTITADKSTSTAYMELSSLRSEDTAVYYCAKGGTGDFDYWGQGTLVTVSS VL: DVVMTQSPLSLPVTLGQPASISCRSSQNIVHSDGNTYLEWYQQRPGQSPRLLIYKVSFRLSGVPDRFSGSGSGTDFTLKISRVEAEDVGVYYCFQGSHVPWTFGGGTKVEIKR",0.014 nM,2.84e-05 s⁻¹,2.02e+06 M⁻¹ s⁻¹,0.0431 µg/mL,–
